Reference: patent publication US20190106498A1, “TREATMENT FOR ACUTE MYELOID LEUKEMIA” (priority 2017, published 2019)

Key:
CD70 = target: T1, CD70 (Homo sapiens, UniProt P32970); settings: cited from earlier work
T1 sequence (P32970 1-193): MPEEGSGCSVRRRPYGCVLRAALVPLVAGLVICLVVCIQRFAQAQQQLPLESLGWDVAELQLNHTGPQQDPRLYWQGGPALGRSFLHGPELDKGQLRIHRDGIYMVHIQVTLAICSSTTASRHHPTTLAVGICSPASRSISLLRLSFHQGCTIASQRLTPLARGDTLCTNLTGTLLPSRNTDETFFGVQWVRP

healthy stem cells = assay type: cell-based, human
Experimental: (§1) FIGS. 3A-3F Anti-CD70/decitabine co-treatment reduces re-plating capacity of human CD34+CD38− AML stem/progenitor cells. […] Colonies and cells were enumerated after 14 days. (FIG. 3A) Colonies per 1×10^3 plated cells. (FIG. 3B) Cells per colony. (FIG. 3C) Serial re-plating experiments. (d-f) FACS-purified lin-CD90+CD34+CD38− stem/progenitor cells from BM of “healthy” donors were cultured and plated in methylcellulose as described in (a-c). (FIG. 3D) Colonies per 1×10^3 plated cells. (FIG. 3E) Cells per colony. (FIG. 3F) Serial re-plating experiments. Data are represented as mean±S.D. Statistics: One-way-ANOVA. Dunnett's post-test (vs. αCD70/D); *, P<0.05; **, P<0.01; ***, P<0.001.

AML LSCs = assay: Colony plating assay of AML LSCs; assay type: cell-based, human; settings: P6, P8, P11; all disease risk categories
Experimental: as §1

human AML cells = assay: αCD70/decitabine treatment of AML patient-derived xenografts in NSG mice; assay type: in vivo; settings: αCD70 10 mg/kg, decitabine 1.5 mg/kg/d, 5 days
Experimental: FIGS. 1A-1I αCD70/decitabine combination therapy eradicates human CD34^+CD38^- AML stem/progenitor cells in murine xenografts. 5×10^6 FACS-purified […] cells from BM of newly diagnosed AML patients (patient […]) were injected intravenously into the tail vein of sub-lethally irradiated NSG mice. After engraftment (day 32 (P10) and day 97 (P25) after transplantation), mice were randomized and subjected to treatment with control mAb and 10 mg/kg αCD70 mAb (41D12-D) intraperitoneally (total of 3 injections) or decitabine and (1.5 mg/kg/day) for five consecutive days alone or in combination. One day after the last treatment, animals were sacrificed and blood, spleen and BM were analyzed. (FIG. 1A) Experimental setup. (FIG. 1B) CD70 expression on CD34^+CD38^- AML stem/progenitor cells. Isotype is depicted in grey; CD70 staining in black (P10) and blue (P25). […] (FIG. 1G) Representative FACS plots and (FIG. 1H) quantification indicating the frequency of CD38^- AML cells within […]^loin^-CD90^-CD34+ AML stem/progenitor cell population. […] 32 days after engraftment (engraftment in PB: 14.45+/-0.95%), NSG mice were randomized to treatment with vehicle (Veh), αCD70 mAb (αCD70, ARGX-110, 10 mg/kg), decitabine (D, 1.5 mg/kg/d) or the combination (αCD70/D) for 5 days and bone marrow, spleen and blood were analyzed.

[1] = Phase I/II trial: adverse events and toxicity
Experimental: Subjects received a loading dose of ARGX-110 on Day −14, followed by administration of ARGX-110 in combination with standard doses of AZA. Doses of ARGX-110 were administered intravenously every 2 weeks (loading dose at Day −14 and further doses on Days 3 and 17) in combination with standard doses of AZA to determine the dose limiting toxicity (see FIG. 4). The first patient of each cohort was monitored until day 7 before a second patient was included. […] The ARGX-110 dose level in the first cohort in Phase I was 1 mg/kg body weight.
All subjects in the study received a single loading dose of ARGX-110 on Day −14, at the same dose level as the bi-weekly dose. Subjects in Phase I of the study received one of the following treatments: • Cohort 1: 1 mg/kg body weight IV on Days 3 and 17 of a 28-day cycle • Cohort 2: 3 mg/kg body weight IV on Days 3 and 17 of a 28-day cycle • Cohort 3: 10 mg/kg body weight IV on Days 3 and 17 of a 28-day cycle • Cohort 4: 20 mg/kg body weight IV on Days 3 and 17 of a 28-day cycle

B1: ARGX-110: IgG1 anti-CD70 antibody with defucosylated Fc region; VH SEQ ID NO: 4, VL SEQ ID NO: 8 (antibody, V domains shown)
VH: EVQLVESGGGLVQPGGSLRLSCAASGFTFSVYYMNWVRQAPGKGLEWVSDINNEGGTTYYADSVKGRFTISRDNSKNSLYLQMNSLRAEDTAVYYCARDAGYSNHVPIFDSWGQGTLVTVSS
VL: QAVVTQEPSLTVSPGGTVTLTCGLKSGSVTSDNFPTWYQQTPGQAPRLLIYNTNTRHSGVPDRFSGSILGNKAALTITGAQADDEAEYFCALFISNPSVEFGGGTQLTVLG
modifications: IgG1, defucosylated Fc; Custom antibody fragment
CD70
  CD70-induced CD27 signalling: inhibit CD70-induced CD27 signalling
  interaction of CD70 with CD27: inhibit the interaction of CD70 with its receptor CD27
Healthy stem cells
  effect on healthy stem cells (colonies, cells per colony, re-plating): no effect on healthy cells compared to vehicle alone
AML LSCs
  number of colonies formed by AML LSCs: reduce the number of colonies
Human AML cells
  number of CD34+CD38− and CD34+CD45− cells (LSCs): reduced both the number of CD34+CD38− cells and of CD34+CD45− cells
  total engraftment in the bone marrow, spleen and blood: reduced total engraftment
[1]; Cohort 1 (1 mg/kg), with AZA
  Anaemia, Grade 3-5 adverse events: (patients): 1
  Anaemia, Grade 3-5 adverse events: Events: 4
  Febrile Neutropenia, Grade 3-5 adverse events: (patients): 2 (2)
  Febrile Neutropenia, Grade 3-5 adverse events: Events: 2 (2)
  Leukopenia, Grade 3-5 adverse events: (patients): 1 (1)
  Leukopenia, Grade 3-5 adverse events: Events: 1 (1)
  Neutropenia, Grade 3-5 adverse events: (patients): 1
  Neutropenia, Grade 3-5 adverse events: Events: 2
  Pleuropericarditis, Grade 3-5 adverse events: (patients): 1 (1)
  Pleuropericarditis, Grade 3-5 adverse events: Events: 1 (1)
  Thrombocytopenia, Grade 3-5 adverse events: (patients): 2
  Thrombocytopenia, Grade 3-5 adverse events: Events: 8
[1]; Cohort 2 (3 mg/kg), with AZA
  Anaemia, Grade 3-5 adverse events: (patients): 3
  Anaemia, Grade 3-5 adverse events: Events: 10
  Constipation, Grade 3-5 adverse events: (patients): 1 (1)
  Constipation, Grade 3-5 adverse events: Events: 1 (1)
  Fever, Grade 3-5 adverse events: (patients): 1 (1)
  Fever, Grade 3-5 adverse events: Events: 1 (1)
  Hypertension, Grade 3-5 adverse events: (patients): 1
  Hypertension, Grade 3-5 adverse events: Events: 2
  Hypokalaemia, Grade 3-5 adverse events: (patients): 1 (1)
  Hypokalaemia, Grade 3-5 adverse events: Events: 1 (1)
  Leukopenia, Grade 3-5 adverse events: (patients): 1 (1)
  Leukopenia, Grade 3-5 adverse events: Events: 1 (1)
  Neutropenia, Grade 3-5 adverse events: (patients): 1
  Neutropenia, Grade 3-5 adverse events: Events: 4
  Proctitis, Grade 3-5 adverse events: (patients): 1
  Proctitis, Grade 3-5 adverse events: Events: 2
  Thrombocytopenia, Grade 3-5 adverse events: (patients): 3 (3)
  Thrombocytopenia, Grade 3-5 adverse events: Events: 3 (3)
[1]; Cohort 3 (10 mg/kg), with AZA
  Disease Progression, Grade 3-5 adverse events: (patients): 1 (1)
  Disease Progression, Grade 3-5 adverse events: Events: 1 (1)
  Febrile Neutropenia, Grade 3-5 adverse events: (patients): 1 (1)
  Febrile Neutropenia, Grade 3-5 adverse events: Events: 1 (1)
  Thrombocytopenia, Grade 3-5 adverse events: (patients): 1
  Thrombocytopenia, Grade 3-5 adverse events: Events: 2
[1]; Cohort 4 (20 mg/kg), with AZA
  Anaemia, Grade 3-5 adverse events: (patients): 1
  Anaemia, Grade 3-5 adverse events: Events: 2
  Febrile Neutropenia, Grade 3-5 adverse events: (patients): 1 (1)
  Febrile Neutropenia, Grade 3-5 adverse events: Events: 1 (1)
  Thrombocytopenia, Grade 3-5 adverse events: (patients): 2 (2)
  Thrombocytopenia, Grade 3-5 adverse events: Events: 2 (2)
[1]; all cohorts
  Anaemia, Grade 3-5 adverse events: Total: 16
  Constipation, Grade 3-5 adverse events: Total: 1
  Disease Progression, Grade 3-5 adverse events: Total: 1
  Febrile Neutropenia, Grade 3-5 adverse events: Total: 4
  Fever, Grade 3-5 adverse events: Total: 1
  Hypertension, Grade 3-5 adverse events: Total: 2
  Hypokalaemia, Grade 3-5 adverse events: Total: 1
  Leukopenia, Grade 3-5 adverse events: Total: 1
  Neutropenia, Grade 3-5 adverse events: Total: 6
  Pleuropericarditis, Grade 3-5 adverse events: Total: 1
  Proctitis, Grade 3-5 adverse events: Total: 2
  Thrombocytopenia, Grade 3-5 adverse events: Total: 15
[1]; monotherapy or in combination with aza
  toxicity: did not result in any observed increase in toxicity
